From patent US7919579B2, “Imaging and therapeutic targeting of prostate and bladder tissues” (The Board of Regents of the University of Texas System, priority 2006, dated 2011)
“Also recorded” adds a separate entry of the source.

Columns and labels:
in vivo [1] = assay: in vivo; parameters: species or system nude mice; details: nude, mouse
Source text: The lungs were removed from both mice. […] The harvested lungs were imaged by microPET again.

[2] = biodistribution of ^64Cu-DOTA-R11 in normal nude mice; assay type: in vivo; details: 5-10 μCi; % ID/g
Protocol: FIG. 6—Biodistribution data of ^64Cu-DOTA-R11 in normal nude mice (n=4). Data are presented as % ID/g±s.d. SV: seminal vesicle; CG: coagulation gland.
The injected dose of ^64Cu-DOTA-R11 in the biodistribution studies was in range of 5-10 μCi. The animals were sacrificed at specific time points (n=4 at each time point). Organs of interest were removed, weighed, and counted. Standards were prepared and counted along with the samples to calculate the percent injected dose per gram tissue (% ID/g).
In order to explore the application of R11 for the detection of bladder cancer metastasis via PET, the inventors conjugated this peptide with a bifunctional chelator, DOTA (1,4,7,10-tetraazacyclododecane-1,4,7,10-tetraacetic acid), so that R11 could be radiolabeled with ^64Cu. […] The radiolabeled peptide was purified via a C-18 cartridge (Millipore) to have >95% radiochemical purity as determined by radio-TLC and HPLC prior to the biodistribution and PET imaging studies. […] Organs of interest were removed, weighed, and counted. Standards were prepared and counted along with the samples to calculate the percent injected dose per gram tissue (% ID/g). […] In addition, the pharmacokinetics of the ^64Cu-labeled peptide was also evaluated by using a two-compartment model.

T24 lung metastases = details: mouse, in vivo
Protocol: (§1) The tumor-bearing animal model was established by injecting into the left flank of each nude mouse subcutaneously with human T24 cell suspension (2×10^6 cells in 100-μL of medium). The tumors were allowed to grow for 42 days prior to PET imaging. […] The microPET imaging studies were performed using the microPETR4 rodent scanner (Concorde Microsystems, Knoxville, Tenn.). The scanner provides a 10×8 cm field of view, and the scanner is currently capable of an axial and transaxial resolution of 2 mm, with an absolute sensitivity of 900 counts per second per μCi. Images were reconstructed using Fourier rebinning followed by two-dimensional filtered back projection. […] At 15 min, 60 min, and 4 hr post injection (p.i.), the mice were anesthetized and immobilized in a supine position on a support bed with attached anesthetic gas nose cones for data collection. The imaging collection time was 10 min.
(§2) After the 4-hr microPET imaging, the animals were sacrificed. The lungs were removed from both mice. […] The harvested lungs were imaged by microPET again.

in vivo [3] = assay: in vivo; parameters: species or system nude mice; details: nude, mouse; remark: listed apart in the source
Protocol: Peptides may be radiolabeled with ^18F or ^64Cu for in vitro and in vivo PET imaging evaluations. The peptides may be prepared using standard F-moc chemistry on an automated peptide synthesizer. Pharmacokinetic parameters of ^64Cu-labeled R11, the lead peptide, were evaluated by the inventors in preliminary experiments by using a two-compartment model. […] However, due to the unknown mechanism of the peptide specificity, it is reasonable to assume that a longer circulation time in the blood is preferable to enhance the image contrast. […]
The tissue distribution of the radiolabeled peptides or peptide conjugates may be evaluated in normal nude mice. […] At selected time points post-injection, animals may be sacrificed, and organs of interest removed, weighed, and counted. The percent injected dose per gram (% ID/g) and percent injected dose per organ (% ID/organ) can be calculated by comparison to a weighed, counted, standard. […] Specifically, blood (10-20-μL) can be drawn from the retroorbital sinus of the animals at 5-min, 10-min, 20-min, and 40-min, and counted on a gamma counter.
The pharmacokinetics of the ^64Cu-labeled peptide was also evaluated by using a two-compartment model. […]

in vivo [4] = details: nude, mouse, iv, uptake of control lungs
Protocol: as §1, §2

In the case of `N=C(N)NCCCC(NC(=O)C(CCCNC(=N)N)NC(=O)C(CCCNC(=N)N)NC(=O)C(CCCNC(=N)N)NC(=O)C(CCCNC(=N)N)NC(=O)C(CCCNC(=N)N)NC(=O)C(CCCNC(=N)N)NC(=O)C(CCCNC(=N)N)NC(=O)C(CCCNC(=N)N)NC(=O)C(CCCNC(=N)N)NC(=O)C(CCCNC(=N)N)NC(=O)CNC(=O)CN1CCN(CC(=O)O)CCN(CC(=O)O)CCN(CC(=O)O)CC1)C(=O)O` (stereo not shown) [^64Cu-DOTA-R11, DOTA-G-RRRRRRRRRRR, metal not drawn], the tissue to tissue ratio (in vivo [1]) is reported as > 8, the “accumulation in prostate and bladder” value [2] is reported as “strong tendency to accumulate in prostate and bladder” and the “uptake in other organs (blood, lungs, liver, spleen, kidneys, muscle)” value [2] is reported as “remarkably low uptake in other organs; also recorded: remarkably low uptake by other organs”. For the same molecule, the “ex vivo microPET and autoradiography of lungs with T24 metastases” value (T24 lung metastases) was “elevated uptake”, the half-life (in vivo [3]; elimination half life from other organs (the secondary compartment)) was 17.2 h and the half-life (in vivo [3]; half-life in the blood (the primary compartment)) was ~0.178 h. The tissue uptake at 0.25 h (in vivo [4]) was < 4 %ID/g.
